Results on 6 molecules are retold here after publication PMC3585263, “A Novel Ion Channel Formed by Interaction of TRPML3 with TRPV5” (PLoS ONE, 2013).

Experiment [1] addresses TRPML3 (not stated (human or mouse cDNA cloned)) (UniProt Q8R4F0). Briefly: FRET or BRET; acceptor photobleaching FRET in transiently transfected HEK293 cells; C-terminal CFP and YFP fusions; FRET efficiency from the recovery of CFP fluorescence during YFP photobleaching. (BRET reads energy transfer from a luciferase to a nearby fluorophore.)
A further experiment deals with T1, TRPML3 ( (human or mouse cDNA cloned), UniProt Q8R4F0 1-553).
T1 construct: TRPML3 cation channel; pcDNA3.1 plasmids held full-length mouse TRPML3 (NM_134160) and human TRPML3 (NM_018298); 'full-length' is printed for the mouse cDNA; Stood as CFP fusion and as YFP fusion in the FRET pairs; also called mucolipin 3; source: HEK293, transiently transfected, in cells; not shown: YFP or CFP, C-terminal, kept
T1 sequence (looked up): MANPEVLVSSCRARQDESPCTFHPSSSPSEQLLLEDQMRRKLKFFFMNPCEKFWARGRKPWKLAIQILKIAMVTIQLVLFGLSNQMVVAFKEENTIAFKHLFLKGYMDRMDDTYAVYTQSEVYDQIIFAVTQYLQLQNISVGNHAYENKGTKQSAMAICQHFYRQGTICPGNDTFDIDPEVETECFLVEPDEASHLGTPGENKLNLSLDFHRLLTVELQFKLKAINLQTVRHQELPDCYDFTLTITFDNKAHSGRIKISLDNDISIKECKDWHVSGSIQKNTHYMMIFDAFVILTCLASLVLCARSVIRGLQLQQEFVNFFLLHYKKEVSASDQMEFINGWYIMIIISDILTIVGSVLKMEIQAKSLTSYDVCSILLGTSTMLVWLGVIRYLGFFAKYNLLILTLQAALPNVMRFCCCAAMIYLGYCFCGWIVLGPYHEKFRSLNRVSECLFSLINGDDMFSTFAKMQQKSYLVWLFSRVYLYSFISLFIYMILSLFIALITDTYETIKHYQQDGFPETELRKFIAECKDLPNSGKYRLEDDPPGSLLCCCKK
The description is as above. Conditions: partners not purified.

For experiment [2], the target named is TRPV5 (mouse) (UniProt P69744).
TRPV5 (mouse), sequence (P69744 whole entry): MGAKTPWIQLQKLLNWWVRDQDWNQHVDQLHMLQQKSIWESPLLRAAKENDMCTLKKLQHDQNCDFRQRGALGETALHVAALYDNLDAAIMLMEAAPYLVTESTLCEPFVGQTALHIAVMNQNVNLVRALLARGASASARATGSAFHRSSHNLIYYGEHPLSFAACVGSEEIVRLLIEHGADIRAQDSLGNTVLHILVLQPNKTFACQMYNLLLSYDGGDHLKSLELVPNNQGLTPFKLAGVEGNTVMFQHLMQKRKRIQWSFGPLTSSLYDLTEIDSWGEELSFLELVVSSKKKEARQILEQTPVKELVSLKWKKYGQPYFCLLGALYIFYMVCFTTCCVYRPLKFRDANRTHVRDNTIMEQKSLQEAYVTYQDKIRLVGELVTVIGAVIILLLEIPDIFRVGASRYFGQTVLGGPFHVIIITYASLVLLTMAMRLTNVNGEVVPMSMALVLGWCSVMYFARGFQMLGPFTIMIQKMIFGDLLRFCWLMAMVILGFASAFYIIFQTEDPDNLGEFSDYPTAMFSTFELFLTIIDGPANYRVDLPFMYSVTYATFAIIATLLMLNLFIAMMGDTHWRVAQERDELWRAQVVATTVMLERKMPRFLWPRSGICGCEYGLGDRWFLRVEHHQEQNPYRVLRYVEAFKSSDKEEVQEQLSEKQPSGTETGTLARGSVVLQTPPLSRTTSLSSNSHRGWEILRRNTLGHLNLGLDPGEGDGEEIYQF
Experiment [3] addresses TRPV5 (mouse) (UniProt P69744). This is another data set of the same source.

On to YFP alone, for which, in experiment [1], the FRET efficiency was below 5%.

B1: TRPA1 (natural protein, UniProt O75762 1-1119, looked up)
chain: MKRSLRKMWRPGEKKEPQGVVYEDVPDDTEDFKESLKVVFEGSAYGLQNFNKQKKLKRCDDMDTFFLHYAAAEGQIELMEKITRDSSLEVLHEMDDYGNTPLHCAVEKNQIESVKFLLSRGANPNLRNFNMMAPLHIAVQGMNNEVMKVLLEHRTIDVNLEGENGNTAVIIACTTNNSEALQILLKKGAKPCKSNKWGCFPIHQAAFSGSKECMEIILRFGEEHGYSRQLHINFMNNGKATPLHLAVQNGDLEMIKMCLDNGAQIDPVEKGRCTAIHFAATQGATEIVKLMISSYSGSVDIVNTTDGCHETMLHRASLFDHHELADYLISVGADINKIDSEGRSPLILATASASWNIVNLLLSKGAQVDIKDNFGRNFLHLTVQQPYGLKNLRPEFMQMQQIKELVMDEDNDGCTPLHYACRQGGPGSVNNLLGFNVSIHSKSKDKKSPLHFAASYGRINTCQRLLQDISDTRLLNEGDLHGMTPLHLAAKNGHDKVVQLLLKKGALFLSDHNGWTALHHASMGGYTQTMKVILDTNLKCTDRLDEDGNTALHFAAREGHAKAVALLLSHNADIVLNKQQASFLHLALHNKRKEVVLTIIRSKRWDECLKIFSHNSPGNKCPITEMIEYLPECMKVLLDFCMLHSTEDKSCRDYYIEYNFKYLQCPLEFTKKTPTQDVIYEPLTALNAMVQNNRIELLNHPVCKEYLLMKWLAYGFRAHMMNLGSYCLGLIPMTILVVNIKPGMAFNSTGIINETSDHSEILDTTNSYLIKTCMILVFLSSIFGYCKEAGQIFQQKRNYFMDISNVLEWIIYTTGIIFVLPLFVEIPAHLQWQCGAIAVYFYWMNFLLYLQRFENCGIFIVMLEVILKTLLRSTVVFIFLLLAFGLSFYILLNLQDPFSSPLLSIIQTFSMMLGDINYRESFLEPYLRNELAHPVLSFAQLVSFTIFVPIVLMNLLIGLAVGDIAEVQKHASLKRIAMQVELHTSLEKKLPLWFLRKVDQKSTIVYPNKPRSGGMLFHIFCFLFCTGEIRQEIPNADKSLEMEILKQKYRLKDLTFLLEKQHELIKLIIQKMEIISETEDDDSHCSFQDRFKKEQMEQRNSRWNTVLRAVKAKTHHLEP
notes: TRPA1 cation channel; construct and species not described; source: HEK293, transiently transfected, in cells; not shown: YFP or CFP, C-terminal, kept
The molecule B1 yielded an FRET efficiency with TRPML3 below 5%.

B2: TRPML3 (natural protein)
chain: T1 sequence (looked up)
Regarding B2, the whole-cell current density of the novel current at −150 mV in standard bath solution (condition 1), HEK293 cells cotransfected with TRPV5 and TRPML3 with TRPV5 (mouse) [2] is -0.129 nA/pF. In the experiment with TRPV5 (mouse) [3], this molecule showed an average open time, single channels of cotransfected HEK293 cells, first type of current, condition 1 of 0.4 ms; an average open time, single channels of cotransfected HEK293 cells, second type of current, condition 1 of 0.16 ms; an average open time, single channels of cotransfected HEK293 cells, second type of current, condition 2 of 0.17 ms; a mean open time, single channels of cotransfected HEK293 cells, first type of current, condition 2 of 5.98 ms. In the experiment with TRPV5 (mouse) [3], this molecule returned a single channel conductance at −150 mV, outside-out patches of cotransfected HEK293 cells, first type of current, condition 1 of 32.3 pS; a single channel conductance, cotransfected HEK293 cells, first type of current, condition 2 of 33.4 pS; a single channel conductance, cotransfected HEK293 cells, second type of current, condition 1 of 34.6 pS; a single channel conductance, cotransfected HEK293 cells, second type of current, condition 2 of 46.7 pS.

B3: TRPV2 (natural protein, UniProt Q9Y5S1 1-764, looked up)
chain: MTSPSSSPVFRLETLDGGQEDGSEADRGKLDFGSGLPPMESQFQGEDRKFAPQIRVNLNYRKGTGASQPDPNRFDRDRLFNAVSRGVPEDLAGLPEYLSKTSKYLTDSEYTEGSTGKTCLMKAVLNLKDGVNACILPLLQIDRDSGNPQPLVNAQCTDDYYRGHSALHIAIEKRSLQCVKLLVENGANVHARACGRFFQKGQGTCFYFGELPLSLAACTKQWDVVSYLLENPHQPASLQATDSQGNTVLHALVMISDNSAENIALVTSMYDGLLQAGARLCPTVQLEDIRNLQDLTPLKLAAKEGKIEIFRHILQREFSGLSHLSRKFTEWCYGPVRVSLYDLASVDSCEENSVLEIIAFHCKSPHRHRMVVLEPLNKLLQAKWDLLIPKFFLNFLCNLIYMFIFTAVAYHQPTLKKQAAPHLKAEVGNSMLLTGHILILLGGIYLLVGQLWYFWRRHVFIWISFIDSYFEILFLFQALLTVVSQVLCFLAIEWYLPLLVSALVLGWLNLLYYTRGFQHTGIYSVMIQKVILRDLLRFLLIYLVFLFGFAVALVSLSQEAWRPEAPTGPNATESVQPMEGQEDEGNGAQYRGILEASLELFKFTIGMGELAFQEQLHFRGMVLLLLLAYVLLTYILLLNMLIALMSETVNSVATDSWSIWKLQKAISVLEMENGYWWCRKKQRAGVMLTVGTKPDGSPDERWCFRVEEVNWASWEQTLPTLCEDPSGAGVPRTLENPVLASPPKEDEDGASEENYVPVQLLQSN
notes: TRPV2 cation channel; construct and species not described; source: HEK293, transiently transfected, in cells; not shown: YFP or CFP, C-terminal, kept
The molecule B3 displayed an FRET efficiency with TRPML3 below 5%.

B4: PKD2 (natural protein, UniProt Q13563 1-968, looked up)
chain: MVNSSRVQPQQPGDAKRPPAPRAPDPGRLMAGCAAVGASLAAPGGLCEQRGLEIEMQRIRQAAARDPPAGAAASPSPPLSSCSRQAWSRDNPGFEAEEEEEEVEGEEGGMVVEMDVEWRPGSRRSAASSAVSSVGARSRGLGGYHGAGHPSGRRRRREDQGPPCPSPVGGGDPLHRHLPLEGQPPRVAWAERLVRGLRGLWGTRLMEESSTNREKYLKSVLRELVTYLLFLIVLCILTYGMMSSNVYYYTRMMSQLFLDTPVSKTEKTNFKTLSSMEDFWKFTEGSLLDGLYWKMQPSNQTEADNRSFIFYENLLLGVPRIRQLRVRNGSCSIPQDLRDEIKECYDVYSVSSEDRAPFGPRNGTAWIYTSEKDLNGSSHWGIIATYSGAGYYLDLSRTREETAAQVASLKKNVWLDRGTRATFIDFSVYNANINLFCVVRLLVEFPATGGVIPSWQFQPLKLIRYVTTFDFFLAACEIIFCFFIFYYVVEEILEIRIHKLHYFRSFWNCLDVVIVVLSVVAIGINIYRTSNVEVLLQFLEDQNTFPNFEHLAYWQIQFNNIAAVTVFFVWIKLFKFINFNRTMSQLSTTMSRCAKDLFGFAIMFFIIFLAYAQLAYLVFGTQVDDFSTFQECIFTQFRIILGDINFAEIEEANRVLGPIYFTTFVFFMFFILLNMFLAIINDTYSEVKSDLAQQKAEMELSDLIRKGYHKALVKLKLKKNTVDDISESLRQGGGKLNFDELRQDLKGKGHTDAEIEAIFTKYDQDGDQELTEHEHQQMRDDLEKEREDLDLDHSSLPRPMSSRSFPRSLDDSEEDDDEDSGHSSRRRGSISSGVSYEEFQVLVRRVDRMEHSIGSIVSKIDAVIVKLEIMERAKLKRREVLGRLLDGVAEDERLGRDSEIHREQMERLVREELERWESDDAASQISHGLGTPVGLNGQPRPRSSRPSSSQSTEGMEGAGGNGSSNVHV
notes: PKD2 (TRPP2) cation channel; construct and species not described; also called TRPP2; source: HEK293, transiently transfected, in cells; not shown: YFP or CFP, C-terminal, kept
B4 yielded an FRET efficiency with TRPML3 below 5%.

B5: TRPC6 (natural protein, UniProt Q9Y210 1-931, looked up)
chain: MSQSPAFGPRRGSSPRGAAGAAARRNESQDYLLMDSELGEDGCPQAPLPCYGYYPCFRGSDNRLAHRRQTVLREKGRRLANRGPAYMFSDRSTSLSIEEERFLDAAEYGNIPVVRKMLEECHSLNVNCVDYMGQNALQLAVANEHLEITELLLKKENLSRVGDALLLAISKGYVRIVEAILSHPAFAEGKRLATSPSQSELQQDDFYAYDEDGTRFSHDVTPIILAAHCQEYEIVHTLLRKGARIERPHDYFCKCNDCNQKQKHDSFSHSRSRINAYKGLASPAYLSLSSEDPVMTALELSNELAVLANIEKEFKNDYKKLSMQCKDFVVGLLDLCRNTEEVEAILNGDVETLQSGDHGRPNLSRLKLAIKYEVKKFVAHPNCQQQLLSIWYENLSGLRQQTMAVKFLVVLAVAIGLPFLALIYWFAPCSKMGKIMRGPFMKFVAHAASFTIFLGLLVMNAADRFEGTKLLPNETSTDNAKQLFRMKTSCFSWMEMLIISWVIGMIWAECKEIWTQGPKEYLFELWNMLDFGMLAIFAASFIARFMAFWHASKAQSIIDANDTLKDLTKVTLGDNVKYYNLARIKWDPSDPQIISEGLYAIAVVLSFSRIAYILPANESFGPLQISLGRTVKDIFKFMVIFIMVFVAFMIGMFNLYSYYIGAKQNEAFTTVEESFKTLFWAIFGLSEVKSVVINYNHKFIENIGYVLYGVYNVTMVIVLLNMLIAMINSSFQEIEDDADVEWKFARAKLWFSYFEEGRTLPVPFNLVPSPKSLFYLLLKLKKWISELFQGHKKGFQEDAEMNKINEEKKLGILGSHEDLSKLSLDKKQVGHNKQPSIRSSEDFHLNSFNNPPRQYQKIMKRLIKRYVLQAQIDKESDEVNEGELKEIKQDISSLRYELLEEKSQNTEDLAELIRELGEKLSMEPNQEETNR
notes: TRPC6 cation channel; construct and species not described; source: HEK293, transiently transfected, in cells; not shown: YFP or CFP, C-terminal, kept
In the experiment with TRPML3, B5 came in with an FRET efficiency below 5%.
